From patent US20260139048A1 (NANJING LEGEND BIOTECH, published 2026)
Where two headings read alike, the source gives them in different places. Blank lines part the entries; values can stand above or below the binder they belong to.

Legend:
His-tagged human TIGIT [1] = target: T1, His-tagged human TIGIT (human, UniProt Q495A1 22-141); test: SPR experiment 3, IgG from HEK293 supernatant
T1 construct: SPR analyte; also called human TIGIT protein; not shown: His tag
T1 sequence: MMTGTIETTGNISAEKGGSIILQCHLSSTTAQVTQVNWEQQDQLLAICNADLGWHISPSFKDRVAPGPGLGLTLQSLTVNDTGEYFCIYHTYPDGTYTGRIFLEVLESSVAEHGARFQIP

His-tagged human TIGIT [2] = target: T1, His-tagged human TIGIT; test: SPR experiment 3, IgG from HEK293 supernatant captured
His-tagged human TIGIT [3] = target: T1, His-tagged human TIGIT; test: SPR experiment 1, IgG from HEK293 supernatant captured
His-tagged human TIGIT [4] = target: T1, His-tagged human TIGIT; test: SPR experiment 2, IgG from HEK293 supernatant captured
[5] = target: T2, TIGIT on TIGIT-over expressing NFAT-Luc/Jurkat effector cells (GenScript reporter cell line) (UniProt Q495A1 22-244, limits assumed); test: cell-based or functional assay
T2 sequence (looked up): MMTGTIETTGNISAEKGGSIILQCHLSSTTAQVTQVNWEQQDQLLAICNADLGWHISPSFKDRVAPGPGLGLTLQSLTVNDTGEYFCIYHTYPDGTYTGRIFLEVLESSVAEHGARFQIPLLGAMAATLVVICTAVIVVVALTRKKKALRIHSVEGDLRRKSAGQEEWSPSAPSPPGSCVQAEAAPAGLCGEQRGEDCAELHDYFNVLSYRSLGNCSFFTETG

His-tagged human TIGIT [6] = target: T1, His-tagged human TIGIT; test: SPR experiment 2, IgG from HEK293 supernatant captured; remark: listed apart in the source
[7] = target: T3, cynomolgus TIGIT expressed on CHO-K1 cells (cynomolgus, UniProt A0A7N9I9V4 89-312); test: flow cytometry on CHO-K1 cells expressing cynomolgus TIGIT
T3 construct: whole, on cells; also called cynomolgus TIGIT over-expressing cell line

His-tagged human TIGIT [8] = target: T1, His-tagged human TIGIT; test: SPR experiment 1, IgG from HEK293 supernatant captured; remark: listed apart in the source
[9] = target: T4, human TIGIT expressed on CHO-K1 cells (human, UniProt Q495A1 22-244); test: flow cytometry competition: biotinylated CD155-Fc on human TIGIT-CHO-K1 cells
T4 construct: whole, on cells; also called human TIGIT-CHO-K1 cells; human TIGIT over-expressing cell line
T4 sequence (looked up): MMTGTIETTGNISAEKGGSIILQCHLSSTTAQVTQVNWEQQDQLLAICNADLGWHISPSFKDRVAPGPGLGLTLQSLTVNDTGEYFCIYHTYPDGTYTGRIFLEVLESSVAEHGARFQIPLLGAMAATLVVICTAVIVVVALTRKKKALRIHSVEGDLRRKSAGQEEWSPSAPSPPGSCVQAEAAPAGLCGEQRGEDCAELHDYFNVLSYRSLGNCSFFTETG

[10] = target: T5, His-tagged cynomolgus TIGIT (cynomolgus, UniProt A0A7N9I9V4 89-209); test: SPR (Biacore T200), antibody captured, His-tagged TIGIT analyte
T5 construct: SPR analyte; also called cynomolgus TIGIT protein; not shown: His tag

His-tagged human TIGIT [11] = target: T1, His-tagged human TIGIT; test: as above
[12] = target: T2, TIGIT on TIGIT-over expressing …; test: cell-based or functional assay; remark: listed apart in the source
[13] = target: T5, His-tagged cynomolgus TIGIT; test: SPR (Biacore T200), antibody captured, His-tagged TIGIT analyte; remark: listed apart in the source
His-tagged human TIGIT [14] = target: T1, His-tagged human TIGIT; test: as above; remark: listed apart in the source
[15] = target: T3, cynomolgus TIGIT expressed on CHO-K1 …; test: flow cytometry on CHO-K1 cells expressing cynomolgus TIGIT; remark: listed apart in the source
[16] = target: T4, human TIGIT expressed on CHO-K1 cells; test: flow cytometry on CHO-K1 cells expressing human TIGIT
[17] = target: T4, human TIGIT expressed on CHO-K1 cells; test: flow cytometry competition: biotinylated CD155-Fc on human TIGIT-CHO-K1 cells; remark: listed apart in the source
[18] = target: T4, human TIGIT expressed on CHO-K1 cells; test: flow cytometry on CHO-K1 cells expressing human TIGIT; remark: listed apart in the source
[19] = target: T3, cynomolgus TIGIT expressed on CHO-K1 …; test: flow cytometry on TIGIT over-expressing CHO-K1 cells
His-tagged human TIGIT [20] = target: T1, His-tagged human TIGIT; test: SPR experiment 2, IgG from HEK293 supernatant captured; remark: listed apart in the source
His-tagged human TIGIT [21] = target: T1, His-tagged human TIGIT; test: SPR experiment 4, IgG from HEK293 supernatant captured
His-tagged human TIGIT [22] = target: T1, His-tagged human TIGIT; test: SPR, IgG from HEK293 supernatant; against 19VH + 19VL

T5 sequence (A0A7N9I9V4 entry or part of it): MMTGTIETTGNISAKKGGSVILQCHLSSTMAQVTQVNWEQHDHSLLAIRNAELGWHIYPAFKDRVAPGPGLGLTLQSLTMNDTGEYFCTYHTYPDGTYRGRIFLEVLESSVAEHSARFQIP
T3 sequence (A0A7N9I9V4 entry or part of it): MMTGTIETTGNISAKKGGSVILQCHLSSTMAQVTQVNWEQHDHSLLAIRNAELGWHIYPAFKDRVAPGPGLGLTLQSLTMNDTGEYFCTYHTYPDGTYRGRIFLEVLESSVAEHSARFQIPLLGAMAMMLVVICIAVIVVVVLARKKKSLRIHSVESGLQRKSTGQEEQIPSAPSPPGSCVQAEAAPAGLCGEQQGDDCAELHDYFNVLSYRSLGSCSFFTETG

Bottom (RLU) [5]: 47600 RLU
EC50 [5]: 2.75 nM
Top (RLU) [5]: 130000 RLU
Kd (His-tagged human TIGIT [6]): 0.12 nM
koff (His-tagged human TIGIT [6]): 0.00015 s⁻¹
kon (His-tagged human TIGIT [6]): 1.2e+06 M⁻¹ s⁻¹
EC50 [7]: 0.524 nM
Kd (His-tagged human TIGIT [8]): 0.071 nM
koff (His-tagged human TIGIT [8]): 9.7e-05 s⁻¹
kon (His-tagged human TIGIT [8]): 1.4e+06 M⁻¹ s⁻¹
IC50 [9]: 0.26 nM
Kd [10]: 0.091 nM
koff [10]: 6.6e-05 s⁻¹
kon [10]: 730000 M⁻¹ s⁻¹
Kd (His-tagged human TIGIT [11]): 0.071 nM
koff (His-tagged human TIGIT [11]): 0.0001 s⁻¹
kon (His-tagged human TIGIT [11]): 1.5e+06 M⁻¹ s⁻¹
Bottom (RLU) [12]: 11100 RLU
EC50 [12]: 3.28 nM
Top (RLU) [12]: 41600 RLU
Kd [13]: 0.032 nM
koff [13]: 3.2e-05 s⁻¹
kon [13]: 1e+06 M⁻¹ s⁻¹
Kd (His-tagged human TIGIT [14]): 0.04 nM
koff (His-tagged human TIGIT [14]): 5.9e-05 s⁻¹
kon (His-tagged human TIGIT [14]): 1.5e+06 M⁻¹ s⁻¹
EC50 [15]: 1.05 nM
EC50 [16]: 0.311 nM
IC50 [17]: 0.4 nM
EC50 [18]: 0.41 nM
B4: TIGIT-19 chimeric antibody (antibody, human IgG1, kappa, V domains shown)
VH: QVQLQQPGPELVKPGTSVMLSCKASGYAFSRYSMYWVKQSHGKSLEWIAFIDPYNGGSTYNQRFRGKATLTVDKSSSTAYMHLNTLTSDDSAVYYCARGGDYGWYLGVWGAGTTVTVSS
VL: DIQMTQSPASLSASVGETVTITCRPSENIYTYLSWYQQKRGKSPQLLVYNAKTLPENVPSRFSGSGSGTQFSLKIDSLQPEDFGNYYCQHHYGNPLTFGAGTKLELKR
notes: also called 19VH + 19VL

Bottom (RLU) [5]: 55800 RLU
EC50 [5]: 2.1 nM
Top (RLU) [5]: 148000 RLU
Kd (His-tagged human TIGIT [21]): 0.28 nM
koff (His-tagged human TIGIT [21]): 0.00017 s⁻¹
kon (His-tagged human TIGIT [21]): 610000 M⁻¹ s⁻¹
EC50 [7]: 1.42 nM
IC50 [9]: 0.558 nM
Kd (His-tagged human TIGIT [3]): 0.24 nM
koff (His-tagged human TIGIT [3]): 0.00012 s⁻¹
kon (His-tagged human TIGIT [3]): 510000 M⁻¹ s⁻¹
Kd [10]: 1.8 nM
koff [10]: 0.0002 s⁻¹
kon [10]: 110000 M⁻¹ s⁻¹
Kd (His-tagged human TIGIT [11]): 0.081 nM
koff (His-tagged human TIGIT [11]): 5.9e-05 s⁻¹
kon (His-tagged human TIGIT [11]): 730000 M⁻¹ s⁻¹
Bottom (RLU) [12]: 11200 RLU
EC50 [12]: 2.77 nM
Top (RLU) [12]: 42800 RLU
Kd [13]: 0.45 nM
koff [13]: 5.3e-05 s⁻¹
kon [13]: 120000 M⁻¹ s⁻¹
Kd (His-tagged human TIGIT [14]): 0.075 nM
koff (His-tagged human TIGIT [14]): 4.7e-05 s⁻¹
kon (His-tagged human TIGIT [14]): 630000 M⁻¹ s⁻¹
EC50 [15]: 2 nM
EC50 [16]: 0.346 nM
IC50 [17]: 0.38 nM
EC50 [18]: 0.53 nM
B6: TIGIT-3 chimeric antibody (antibody, human IgG1, kappa, V domains shown)
VH: EVQLVESGGGLVQPGGSLKLSCAASGFTFSSYGMSWVRQTPDKRLELVATIKSDGGSTNLPDSVKGRFTISRDNAKNTLHLQMSSLKSEDTAMYYCVRGYFDYWGQGTSVTVSS
VL: DIVMTQSHKFMSTSVGDRVSITCKASQDVKTAVAWYQQKPGQSPKLLIYWSSTRHTGVPDRFTGSRSLTDHTLTISSVQAEDLALYYCQQYYSTPYTFGGGTKLELKR
notes: also called 3VH + 3VL

fold improvement of binding affinity (His-tagged human TIGIT [22]): ~4 fold
Kd (His-tagged human TIGIT [6]): 0.028 nM
koff (His-tagged human TIGIT [6]): 3.3e-05 s⁻¹
kon (His-tagged human TIGIT [6]): 1.2e+06 M⁻¹ s⁻¹
Kd (His-tagged human TIGIT [8]): 0.0196 nM
koff (His-tagged human TIGIT [8]): 2.51e-05 s⁻¹
kon (His-tagged human TIGIT [8]): 1.28e+06 M⁻¹ s⁻¹
B7: humanized TIGIT-19 antibody 19VH4 + 19VL1 (antibody, V domains shown)
VH: QVQLVQSGAEVKKPGASVKVSCKASGYAFSRYSMYWVRQAPGQGLEWIAFIDPYNGGSTYNQRFRGKATLTVDTSISTAYMELSRLRSDDTAVYYCARGGDYGWYLGVWGQGTLVTVSS
VL: DIQMTQSPSSLSASVGDRVTITCRPSENIYTYLSWYQQKPGKAPKLLIYNAKTLPEGVPSRFSGSGSGTDFTLTISSLQPEDFATYYCQHHYGNPLTFGQGTKVEIK
notes: Full-length IgG, tested as HEK293 supernatant

Second part, the binder before the results:

B1: reshaped TIGIT-3 antibody 3VH3 + 3VL1 (antibody, V domains shown)
VH: EVQLVESGGGLVQPGGSLRLSCAASGFTFSSYGMSWVRQAPGKGLELVATIKSDGGSTNLPDSVKGRFTISRDNSKNTLYLQMNSLRAEDTAVYYCVRGYFDYWGQGTTVTVSS
VL: DIQMTQSPSSLSASVGDRVTITCKASQDVKTAVAWYQQKPGKVPKLLIYWSSTRHTGVPSRFSGSGSGTDFTLTISSLQPEDVATYYCQQYYSTPYTFGGGTKVEIK
notes: as for B7
fold affinity decrease (His-tagged human TIGIT [1]): ~100 fold
Kd (His-tagged human TIGIT [2]): 36 nM
koff (His-tagged human TIGIT [2]): 0.0076 s⁻¹
kon (His-tagged human TIGIT [2]): 210000 M⁻¹ s⁻¹

B2: reshaped TIGIT-3 antibody 3VH3 + 3VL (antibody, V domains shown)
VH: EVQLVESGGGLVQPGGSLRLSCAASGFTFSSYGMSWVRQAPGKGLELVATIKSDGGSTNLPDSVKGRFTISRDNSKNTLYLQMNSLRAEDTAVYYCVRGYFDYWGQGTTVTVSS
VL: DIVMTQSHKFMSTSVGDRVSITCKASQDVKTAVAWYQQKPGQSPKLLIYWSSTRHTGVPDRFTGSRSLTDHTLTISSVQAEDLALYYCQQYYSTPYTFGGGTKLELK
notes: as for B7
Kd (His-tagged human TIGIT [3]): 0.25 nM
koff (His-tagged human TIGIT [3]): 0.00015 s⁻¹
kon (His-tagged human TIGIT [3]): 580000 M⁻¹ s⁻¹
Kd (His-tagged human TIGIT [4]): 0.48 nM
koff (His-tagged human TIGIT [4]): 0.00025 s⁻¹
kon (His-tagged human TIGIT [4]): 520000 M⁻¹ s⁻¹

B3: reshaped TIGIT-3 antibody 3VH3.M4 + 3VL (antibody, V domains shown)
VH: EVQLVESGGGLVQPGGSLRLSCAASGFTFSSYGMSWVRQAPGKGLELVATIKSSGGSTNLADSVKGRFTISRDNSKNTLYLQMNSLRAEDTAVYYCVRGYFDYWGQGTTVTVSS
VL: DIVMTQSHKFMSTSVGDRVSITCKASQDVKTAVAWYQQKPGQSPKLLIYWSSTRHTGVPDRFTGSRSLTDHTLTISSVQAEDLALYYCQQYYSTPYTFGGGTKLELK
notes: as for B7
Kd (His-tagged human TIGIT [4]): 0.36 nM
koff (His-tagged human TIGIT [4]): 0.00016 s⁻¹
kon (His-tagged human TIGIT [4]): 450000 M⁻¹ s⁻¹

B5: huTIGIT-6-4 (antibody, human IgG1, kappa, V domains shown)
VH: QVQLVQSGAEVKKPGASVKVSCKASGYTFTENAMHWVRQAPGQRLEWIGGINPNNAGTSYSQKFQGRATLTVDTSASTAYMELSSLRSEDTAVYYCTRSSYYRYDLDYWGQGTTVTVSS
VL: DIQMTQSPSSLSASVGDRVTITCQASQDIKTALAWYQQKPGKAPKLLIYSASYRYTGVPSRFSGSGSGTDFTFTISSLQPEDIATYYCHQHYTTPWTFGGGTKLEIKR
notes: Humanized IgG; also called 6VH6.M7 + 6VL1.M1
fold EC50 on cynomolgus against human TIGIT cell line [19]: > 10 fold
Bottom (RLU) [5]: 46800 RLU
EC50 [5]: 14.8 nM
Top (RLU) [5]: 128000 RLU
EC50 [7]: 16.7 nM
IC50 [9]: 1.17 nM
Kd [13]: 260 nM
koff [13]: 0.013 s⁻¹
kon [13]: 47000 M⁻¹ s⁻¹
Kd (His-tagged human TIGIT [14]): 0.58 nM
koff (His-tagged human TIGIT [14]): 0.00019 s⁻¹
kon (His-tagged human TIGIT [14]): 330000 M⁻¹ s⁻¹
Kd (His-tagged human TIGIT [20]): 0.75 nM
koff (His-tagged human TIGIT [20]): 0.00023 s⁻¹
kon (His-tagged human TIGIT [20]): 300000 M⁻¹ s⁻¹
EC50 [16]: 1.02 nM
